From US20150344570A1 (published 2015)

T1: human FcγRIIb extracellular domain with C-terminal His tag (human, UniProt P31994 43-217)
T1 construct: extracellular domain; also called FcgRIIb; 2b; not shown: His tag attached to the C terminus
T1 sequence (looked up): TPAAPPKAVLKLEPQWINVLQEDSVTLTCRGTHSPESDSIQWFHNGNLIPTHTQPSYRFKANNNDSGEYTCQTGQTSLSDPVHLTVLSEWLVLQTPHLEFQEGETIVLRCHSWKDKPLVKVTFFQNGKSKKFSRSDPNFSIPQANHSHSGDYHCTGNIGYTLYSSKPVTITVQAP

B1: GpH7-B3 variant S298_08L/GpL16-k0 (Ho Ab) (antibody, human IgG1, kappa)
heavy: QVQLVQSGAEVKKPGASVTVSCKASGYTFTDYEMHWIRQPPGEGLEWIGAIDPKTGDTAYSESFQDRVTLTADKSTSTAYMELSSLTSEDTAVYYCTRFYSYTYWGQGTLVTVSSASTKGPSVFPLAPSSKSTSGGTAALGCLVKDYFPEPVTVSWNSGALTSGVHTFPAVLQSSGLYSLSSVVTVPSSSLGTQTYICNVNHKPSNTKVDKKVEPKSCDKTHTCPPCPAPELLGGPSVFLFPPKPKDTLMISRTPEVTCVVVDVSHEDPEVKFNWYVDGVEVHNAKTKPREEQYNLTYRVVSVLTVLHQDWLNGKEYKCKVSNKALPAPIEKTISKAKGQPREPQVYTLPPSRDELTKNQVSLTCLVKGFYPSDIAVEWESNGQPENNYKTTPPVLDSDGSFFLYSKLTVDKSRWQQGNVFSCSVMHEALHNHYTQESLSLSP
light: DIVMTQSPLSLPVTPGEPASISCQASESLVHSNRNTYLHWYLQKPGQSPQLLIYKVSNRFSGVPDRFSGSGSGTDFTLKISRVEAEDVGVYYCSQNTHVPPTFGQGTKVEIERTVAAPSVFIFPPSDEQLKSGTASVVCLLNNFYPREAKVQWKVDNALQSGNSQESVTEQDSKDSTYSLSSTLTLSKADYEKHKVYACEVTHQGLSSPVTKSFNRGEC
notes: Anti-glypican-3 IgG1; mutation in both H chains; also called S298L homodimerized antibody
B2: GpH7-A5/GpH7-B3 variant L328_03V/GpL16-k0 (He Ab) (antibody, human IgG1, kappa)
heavy 1: not shown
heavy 2: not shown
light: B1 light
notes: Anti-glypican-3 IgG1; mutation only in the GpH7-B3-derived H chain; also called L328V heterodimerized antibody
B3: GpH7-A5/GpH7-B3 variant L328_14T/GpL16-k0 (He Ab) (antibody, human IgG1, kappa)
heavy 1: not shown
heavy 2: not shown
light: B1 light
notes: Anti-glypican-3 IgG1; mutation only in the GpH7-B3-derived H chain; also called L328T heterodimerized antibody
B4: GpH7-A5/GpH7-B3 variant S239_18N/GpL16-k0 (He Ab) (antibody, human IgG1, kappa)
heavy 1: not shown
heavy 2: not shown
light: B1 light
notes: Anti-glypican-3 IgG1; mutation only in the GpH7-B3-derived H chain; also called S239N heterodimerized antibody
B5: GpH7-A5/GpH7-B3 variant P271_08L/GpL16-k0 (He Ab) (antibody, human IgG1, kappa)
heavy 1: not shown
heavy 2: not shown
light: B1 light
notes: Anti-glypican-3 IgG1; mutation only in the GpH7-B3-derived H chain; also called P271L heterodimerized antibody
B6: GpH7-A5/GpH7-B3 variant P271_01G/GpL16-k0 (He Ab) (antibody, human IgG1, kappa)
heavy 1: not shown
heavy 2: not shown
light: B1 light
notes: Anti-glypican-3 IgG1; mutation only in the GpH7-B3-derived H chain; also called P271G heterodimerized antibody
B7: GpH7-A5/GpH7-B3 variant S267_09D/GpL16-k0 (He Ab) (antibody, human IgG1, kappa)
heavy 1: not shown
heavy 2: not shown
light: B1 light
notes: Anti-glypican-3 IgG1; mutation only in the GpH7-B3-derived H chain; also called S267D heterodimerized antibody
B8: GpH7-A5/GpH7-B3 variant L328_04F/GpL16-k0 (He Ab) (antibody, human IgG1, kappa)
heavy 1: not shown
heavy 2: not shown
light: B1 light
notes: Anti-glypican-3 IgG1; mutation only in the GpH7-B3-derived H chain; also called L328F heterodimerized antibody
B9: GpH7-A5/GpH7-B3 variant S239_09D/GpL16-k0 (He Ab) (antibody, human IgG1, kappa)
heavy 1: not shown
heavy 2: not shown
light: B1 light
notes: Anti-glypican-3 IgG1; mutation only in the GpH7-B3-derived H chain; also called S239D heterodimerized antibody
B10: GpH7-A5/GpH7-B3 variant S267_07I/GpL16-k0 (He Ab) (antibody, human IgG1, kappa)
heavy 1: not shown
heavy 2: not shown
light: B1 light
notes: Anti-glypican-3 IgG1; mutation only in the GpH7-B3-derived H chain; also called S267I heterodimerized antibody
B11: GpH7-B3 variant Y300_19Q/GpL16-k0 (Ho Ab) (antibody, human IgG1, kappa)
heavy: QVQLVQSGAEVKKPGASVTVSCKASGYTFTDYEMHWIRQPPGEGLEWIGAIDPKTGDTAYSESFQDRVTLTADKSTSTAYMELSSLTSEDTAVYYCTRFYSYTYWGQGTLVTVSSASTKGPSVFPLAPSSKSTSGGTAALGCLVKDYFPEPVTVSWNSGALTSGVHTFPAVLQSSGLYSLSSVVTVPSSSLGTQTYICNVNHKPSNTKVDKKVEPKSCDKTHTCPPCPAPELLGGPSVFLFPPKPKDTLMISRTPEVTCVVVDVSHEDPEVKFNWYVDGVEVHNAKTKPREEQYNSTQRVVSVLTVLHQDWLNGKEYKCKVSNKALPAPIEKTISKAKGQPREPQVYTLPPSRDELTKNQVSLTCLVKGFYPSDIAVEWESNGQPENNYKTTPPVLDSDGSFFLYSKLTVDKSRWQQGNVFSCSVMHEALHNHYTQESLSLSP
light: B1 light
notes: Anti-glypican-3 IgG1; mutation in both H chains; also called Y300Q homodimerized antibody
B12: GpH7-B3 variant S337_09D/GpL16-k0 (Ho Ab) (antibody, human IgG1, kappa)
heavy: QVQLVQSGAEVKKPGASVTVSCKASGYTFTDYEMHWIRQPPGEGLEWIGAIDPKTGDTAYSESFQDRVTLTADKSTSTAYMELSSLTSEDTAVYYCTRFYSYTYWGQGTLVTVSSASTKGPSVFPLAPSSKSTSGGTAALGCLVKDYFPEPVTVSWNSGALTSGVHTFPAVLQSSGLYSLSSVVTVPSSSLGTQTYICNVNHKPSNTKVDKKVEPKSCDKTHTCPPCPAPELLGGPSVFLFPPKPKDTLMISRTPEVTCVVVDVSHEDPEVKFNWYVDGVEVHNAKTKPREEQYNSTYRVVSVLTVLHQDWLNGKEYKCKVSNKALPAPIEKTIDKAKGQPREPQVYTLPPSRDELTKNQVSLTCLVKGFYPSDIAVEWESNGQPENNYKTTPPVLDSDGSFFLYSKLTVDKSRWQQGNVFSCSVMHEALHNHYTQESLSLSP
light: B1 light
notes: Anti-glypican-3 IgG1; mutation in both H chains; also called S337D homodimerized antibody
B13: GpH7-A5/GpH7-B3 variant T335_09D/GpL16-k0 (He Ab) (antibody, human IgG1, kappa)
heavy 1: not shown
heavy 2: not shown
light: B1 light
notes: Anti-glypican-3 IgG1; mutation only in the GpH7-B3-derived H chain; also called T335D heterodimerized antibody
B14: GpH7-A5/GpH7-B3 variant S337_14T/GpL16-k0 (He Ab) (antibody, human IgG1, kappa)
heavy 1: not shown
heavy 2: not shown
light: B1 light
notes: Anti-glypican-3 IgG1; mutation only in the GpH7-B3-derived H chain; also called S337T heterodimerized antibody
B15: GpH7-A5/GpH7-B3 variant S337_09D/GpL16-k0 (He Ab) (antibody, human IgG1, kappa)
heavy 1: not shown
heavy 2: not shown
light: B1 light
notes: Anti-glypican-3 IgG1; mutation only in the GpH7-B3-derived H chain; also called S337D heterodimerized antibody
B16: GpH7-A5/GpH7-B3 variant T335_04F/GpL16-k0 (He Ab) (antibody, human IgG1, kappa)
heavy 1: not shown
heavy 2: not shown
light: B1 light
notes: Anti-glypican-3 IgG1; mutation only in the GpH7-B3-derived H chain; also called T335F heterodimerized antibody
B17: GpH7-A5/GpH7-B3 variant Y300_19Q/GpL16-k0 (He Ab) (antibody, human IgG1, kappa)
heavy 1: not shown
heavy 2: not shown
light: B1 light
notes: Anti-glypican-3 IgG1; mutation only in the GpH7-B3-derived H chain; also called Y300Q heterodimerized antibody
B18: GpH7-A5/GpH7-B3 variant S239_07I/GpL16-k0 (He Ab) (antibody, human IgG1, kappa)
heavy 1: not shown
heavy 2: not shown
light: B1 light
notes: Anti-glypican-3 IgG1; mutation only in the GpH7-B3-derived H chain; also called S239I heterodimerized antibody
B19: GpH7-B3 variant T335_04F/GpL16-k0 (Ho Ab) (antibody, human IgG1, kappa)
heavy: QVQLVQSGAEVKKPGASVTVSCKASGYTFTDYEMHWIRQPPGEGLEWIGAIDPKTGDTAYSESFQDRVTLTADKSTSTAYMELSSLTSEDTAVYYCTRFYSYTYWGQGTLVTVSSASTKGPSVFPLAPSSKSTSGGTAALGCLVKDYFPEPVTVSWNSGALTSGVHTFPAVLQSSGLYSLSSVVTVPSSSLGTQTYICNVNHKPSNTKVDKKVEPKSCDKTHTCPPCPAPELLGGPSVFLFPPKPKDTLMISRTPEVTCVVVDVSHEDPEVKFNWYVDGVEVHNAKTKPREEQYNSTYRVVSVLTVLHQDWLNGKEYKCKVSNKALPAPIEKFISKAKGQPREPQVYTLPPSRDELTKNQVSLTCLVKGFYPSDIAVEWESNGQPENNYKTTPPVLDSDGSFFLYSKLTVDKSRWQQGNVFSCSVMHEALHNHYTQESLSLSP
light: B1 light
notes: Anti-glypican-3 IgG1; mutation in both H chains; also called T335F homodimerized antibody
B20: GpH7-A5/GpH7-B3 variant K334_16H/GpL16-k0 (He Ab) (antibody, human IgG1, kappa)
heavy 1: not shown
heavy 2: not shown
light: B1 light
notes: Anti-glypican-3 IgG1; mutation only in the GpH7-B3-derived H chain; also called K334H heterodimerized antibody
B21: GpH7-A5/GpH7-B3 variant L328_06M/GpL16-k0 (He Ab) (antibody, human IgG1, kappa)
heavy 1: not shown
heavy 2: not shown
light: B1 light
notes: Anti-glypican-3 IgG1; mutation only in the GpH7-B3-derived H chain; also called L328M heterodimerized antibody

target: T1, human FcγRIIb extracellular domain with …; assay: SPR (Biacore T100), antibody captured on antigen peptide chip, FcγRIIb as analyte; relative binding
Procedure: Analysis of interaction between objective antibody and the FcγR was carried out using Biacore T100 (GE Healthcare). HBS-EP+ (GE Healthcare) was used as the running buffer, and the measurement temperature was set to 25° C. Chips produced by immobilizing the antigen peptide by the amine coupling method to a Series S Sencor Chip CM5 (GE Healthcare), or alternatively, chips produced by allowing preliminarily biotinylated antigen peptides to interact with and immobilize onto a Series S Sensor Chip SA (certified) (GE Healthcare) were used. Antibodies of interest were captured onto an antigen peptide-immobilized chip, and allowed to interact to each FcγR diluted with running buffer. To regenerate and repeatedly use the chip, the antibodies captured on the chip were washed off by reacting 10 mM glycine-HCl, pH 1.5.

Ho/Con_2b | He/Con_2b | Binder
115 % of control GpH7-B3/GpL16-k0 (=100) | – | B1
– | 126 % of control GpH7-A5/GpH7-B3/GpL16-k0 (=100) | B2
– | 141 % of control GpH7-A5/GpH7-B3/GpL16-k0 (=100) | B3
– | 119 % of control GpH7-A5/GpH7-B3/GpL16-k0 (=100) | B4
– | 103 % of control GpH7-A5/GpH7-B3/GpL16-k0 (=100) | B5
– | 193 % of control GpH7-A5/GpH7-B3/GpL16-k0 (=100) | B6
– | 310 % of control GpH7-A5/GpH7-B3/GpL16-k0 (=100) | B7
– | 219 % of control GpH7-A5/GpH7-B3/GpL16-k0 (=100) | B8
– | 206 % of control GpH7-A5/GpH7-B3/GpL16-k0 (=100) | B9
– | 192 % of control GpH7-A5/GpH7-B3/GpL16-k0 (=100) | B10
124 % of control GpH7-B3/GpL16-k0 (=100) | – | B11
116 % of control GpH7-B3/GpL16-k0 (=100) | – | B12
– | 108 % of control GpH7-A5/GpH7-B3/GpL16-k0 (=100) | B13
– | 105 % of control GpH7-A5/GpH7-B3/GpL16-k0 (=100) | B14
– | 114 % of control GpH7-A5/GpH7-B3/GpL16-k0 (=100) | B15
– | 103 % of control GpH7-A5/GpH7-B3/GpL16-k0 (=100) | B16
– | 108 % of control GpH7-A5/GpH7-B3/GpL16-k0 (=100) | B17
– | 107 % of control GpH7-A5/GpH7-B3/GpL16-k0 (=100) | B18
107 % of control GpH7-B3/GpL16-k0 (=100) | – | B19
– | 113 % of control GpH7-A5/GpH7-B3/GpL16-k0 (=100) | B20
– | 142 % of control GpH7-A5/GpH7-B3/GpL16-k0 (=100) | B21
